{
  "source": "patent US10781452B2",
  "about": "“FLT3 receptor antagonists for the treatment or the prevention of pain disorders” (INSTITUT NATIONAL DE LA SANTE ET DE LA RECHERCHE MEDICALE …, priority 2010, dated 2020)",
  "key": {"[1]": {"biological_target": "T1, ECD of mouse recombinant FLT3 (Fc-ECDmFLT3) (Mus musculus, UniProt Q00342)", "T1 construct": "ECD of human or mouse recombinant FLT3 produced in NSO cell line; host or cells: NSO cell line", "T1 sequence (Q00342 28-544 limits assumed)": "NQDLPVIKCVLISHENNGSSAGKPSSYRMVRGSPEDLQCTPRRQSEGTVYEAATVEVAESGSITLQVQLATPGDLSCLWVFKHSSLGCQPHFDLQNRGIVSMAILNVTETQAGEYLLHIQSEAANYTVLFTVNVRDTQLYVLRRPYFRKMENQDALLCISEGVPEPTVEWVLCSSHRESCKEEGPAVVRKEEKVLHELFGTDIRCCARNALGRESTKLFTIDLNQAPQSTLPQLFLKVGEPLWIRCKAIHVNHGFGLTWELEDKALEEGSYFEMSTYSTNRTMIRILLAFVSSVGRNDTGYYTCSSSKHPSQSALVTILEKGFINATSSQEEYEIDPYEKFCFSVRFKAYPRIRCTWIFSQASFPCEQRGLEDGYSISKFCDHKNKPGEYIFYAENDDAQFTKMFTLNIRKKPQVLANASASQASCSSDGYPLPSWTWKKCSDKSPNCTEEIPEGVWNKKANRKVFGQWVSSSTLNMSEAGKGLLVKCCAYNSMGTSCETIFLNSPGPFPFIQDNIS", "test": "ELISA binding to ECD of mouse recombinant FLT3", "conditions": "antibody at 10 μg/mL", "protocol": "The A3 antibody directed against FLT3 was produced by a phage display strategy and the antibody selection was performed by using ECD of human or mouse recombinant FLT3 produced in NSO cell line. To identify antibodies cross-reacting with both human and mouse FLT3, phages were selected by three rounds of panning, according to methods well known in the art (Philibert, P. et al. A focused antibody library for selecting scFvs expressed at high levels in the cytoplasm. BMC Biotechnol. 7, 81; 2007), first against the ECD of human FLT3, then against the ECD of mouse FLT3 and then against the ECD of human FLT3. A batch of one selected antibody named A3 was tested for its ability to bind to the ECD of human or mouse recombinant FLT3 using an ELISA technique."}, "FLT3": {"biological_target": "T2, FLT3 (Homo sapiens, UniProt P36888)", "T2 construct": "expressed in transfected cells; host or cells: RS4-11", "T2 sequence (P36888 27-993)": "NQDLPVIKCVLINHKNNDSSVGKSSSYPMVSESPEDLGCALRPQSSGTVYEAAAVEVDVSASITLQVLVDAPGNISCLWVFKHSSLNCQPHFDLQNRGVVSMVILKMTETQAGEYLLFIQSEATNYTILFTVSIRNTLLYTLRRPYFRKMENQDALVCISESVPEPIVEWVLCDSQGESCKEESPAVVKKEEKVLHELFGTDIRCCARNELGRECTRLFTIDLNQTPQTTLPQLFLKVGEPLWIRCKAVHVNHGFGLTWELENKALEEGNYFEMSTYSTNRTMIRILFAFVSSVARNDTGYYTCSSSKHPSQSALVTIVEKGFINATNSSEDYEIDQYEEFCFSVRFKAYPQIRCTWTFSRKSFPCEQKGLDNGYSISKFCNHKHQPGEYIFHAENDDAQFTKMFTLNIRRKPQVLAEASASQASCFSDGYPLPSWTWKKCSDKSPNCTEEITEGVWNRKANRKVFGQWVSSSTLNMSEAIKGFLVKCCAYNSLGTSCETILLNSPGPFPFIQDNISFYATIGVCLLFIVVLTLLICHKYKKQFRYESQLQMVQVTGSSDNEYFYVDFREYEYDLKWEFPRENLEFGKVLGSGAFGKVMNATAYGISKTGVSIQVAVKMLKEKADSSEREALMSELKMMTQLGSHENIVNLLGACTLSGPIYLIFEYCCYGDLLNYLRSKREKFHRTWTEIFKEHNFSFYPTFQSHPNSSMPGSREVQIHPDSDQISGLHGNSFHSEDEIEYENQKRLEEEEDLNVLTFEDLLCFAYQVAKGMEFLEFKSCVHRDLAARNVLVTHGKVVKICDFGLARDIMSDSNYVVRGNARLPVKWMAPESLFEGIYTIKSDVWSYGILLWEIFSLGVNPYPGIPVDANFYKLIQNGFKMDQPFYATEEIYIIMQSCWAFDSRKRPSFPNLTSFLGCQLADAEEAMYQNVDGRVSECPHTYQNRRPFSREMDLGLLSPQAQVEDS", "test": "FL-induced FLT3 auto-phosphorylation assay in RS4-11 cells", "assay_type": "cell-based", "conditions": "antibody at 10 and 100 μg/ml", "protocol": "Cell. RS4-11 cells, used for auto-phosphorylation assays, were maintained in RPMI-1640 (Invitrogen) and 10% Fetal Calf Serum. They were transfected as in the case of HEK cells (see above)\nAuto-Phosphorylation assays. A density of 50,000 cells per well was used to carry out this assay in suspension in 384-well small volume plates to determine the degree of phosphorylation of FLT3. In the aim to discover antagonist compounds and to develop this assay, we were determined the efficiency of FL on RS4-11 cells.\nCells were incubated with 1 nM of rh-FL in the presence of increasing concentrations of the antibody. In the plates containing RS4-11 cells (5 μL/well), 5 μL of compounds to be tested were added and incubated for 1 h at room temperature prior to the addition of 2 μof rh-FL at 0.1 μM. After incubation of 3 min at room temperature of rh-FL, 4 μl of lysis buffer were added and incubated for 2 h at room temperature. A mix of anti-FLT3 and an anti-TYR-969 FLT3 antibodies labeled with Lumi4-Tb and d2 respectively (4 μL) diluted in Tag-lites) labelling medium, were added on cell lysate. Plates were then incubated at room temperature for 2 h or overnight before signal detection (as above)."}},
  "data": [
    {"molecule": "A3 antibody: human monoclonal antibody against FLT3; VH SEQ ID NO:1, VL SEQ ID NO:2 (antibody, V domains shown, Synthetic VH domain of A3; Synthetic VL region of A3) VH: EVQLVESGGSLVKPGGSLRLSCAASGFTFSNSYMNWVRQAPGKGLEWISDISGSSRDIDYADFVKGRFTISRDNATNSLYLQMNSLRAEDTAVYYCVRSGNSGMDVWGRGTLVTVSS VL: QSVLTQPASVSGSPGQSITISCAGTSSDVGGGYYVSWYQQHPGKAPKLMIYYDSYRPSGVSNRFSGSKSGNTASLTISGLQAEDEADYYCSSYTNNSTRVFGGGTKLEIK", "values": [
      {"measurement": "ELISA immunoreactivity against Fc-ECDmFLT3", "setting": "[1]", "value": "generates immunoreactivity"},
      {"measurement": "FL-induced FLT3 autophosphorylation", "setting": "FLT3", "value": "inhibits FL-induced FLT3 autophosphorylation"}
    ]}
  ]
}
